Assay results: publication PMC12517307

Molecular target: p53 (UniProt P04637)
Sequence (P04637 whole entry): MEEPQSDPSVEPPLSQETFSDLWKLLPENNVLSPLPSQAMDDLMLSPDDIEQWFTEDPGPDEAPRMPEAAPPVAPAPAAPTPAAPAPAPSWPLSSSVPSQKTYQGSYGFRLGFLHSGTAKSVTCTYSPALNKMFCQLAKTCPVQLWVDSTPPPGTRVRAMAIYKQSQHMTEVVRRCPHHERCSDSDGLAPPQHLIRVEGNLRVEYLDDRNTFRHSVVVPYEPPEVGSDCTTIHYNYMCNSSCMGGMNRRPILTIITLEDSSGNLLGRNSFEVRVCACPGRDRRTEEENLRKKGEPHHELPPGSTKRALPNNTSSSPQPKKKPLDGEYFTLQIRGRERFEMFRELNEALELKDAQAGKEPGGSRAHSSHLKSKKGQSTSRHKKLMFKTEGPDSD

- p53 acetylation (IP with anti-p53, blot with anti-acetyl-lysine) in 3T3-L1 adipocytes overexpressing p53 and p300: reduction by NDN against control adipocytes; reversed by further addition of p300: 51%
Substance: p300 acetyl transferase, Q09472 1-2414
